The assay concerns the target T1, recombinant human IgE, SE44 (human, UniProt P01854-1 1-428).
T1 construct: also called monoclonal human IgE (SE44); biotinylated SE44
As to the kind of experiment: ELISA titration on plate-coated SE44 (human IgE); Fab detected with biotin-sheep anti-human Fd and Neutra-avidin-AP (Example 6).

Consider 1 molecule from patent US20060251644A1 (TANOX, published 2006).

T1 sequence (P01854 other isoform, or with tags, fused parts or gaps): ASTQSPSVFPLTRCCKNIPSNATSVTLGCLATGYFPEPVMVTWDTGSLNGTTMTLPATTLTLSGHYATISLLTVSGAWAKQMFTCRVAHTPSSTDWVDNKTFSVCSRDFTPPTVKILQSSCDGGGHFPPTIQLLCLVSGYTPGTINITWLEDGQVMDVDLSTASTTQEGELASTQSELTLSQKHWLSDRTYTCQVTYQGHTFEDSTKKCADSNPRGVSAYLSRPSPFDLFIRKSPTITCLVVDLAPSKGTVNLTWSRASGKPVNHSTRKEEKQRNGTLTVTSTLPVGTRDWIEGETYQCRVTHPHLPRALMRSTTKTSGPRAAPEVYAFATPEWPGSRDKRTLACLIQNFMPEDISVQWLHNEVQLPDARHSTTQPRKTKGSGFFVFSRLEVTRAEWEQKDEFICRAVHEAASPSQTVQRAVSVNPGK
Description: Coating solution was removed and the plates were blocked with 200 uL/well 3% BSA/PBS for 1 hour at 37° C.
The plates were washed 4× with PBS/0.1% TWEEN® (PBST). 50 uL/well Fab (from 15 mL periplasmic prep) was added starting with a dilution of 1:2 and diluting 3 fold serially in 0.5% BSA/PBS and 0.05% TWEEN®20. Plates were incubated for 2 hours at room temperature.

B1: humanized Fab clone 136 (Fab, V domains shown)
VH: QVQLVQSGAEVMKPGSSVKVSCKASGYTFSMYWLEWVRQAPGHGLEWMGEISPGTFTTNYNEKFKARVTFTADTSTSTAYMELSSLRSEDTAVYYCARFSHFSGSNYDYFDYWGQGTLVTVSS
VL: EIVMTQSPATLSVSPGERATLSCRASQSIGTNIHWYQQKPGQAPRLLIYYASESISGIPARFSGSGSGTEFTLTISSLQSEDFAVYYCQQSDSWPTTFGGGTKVEIK
notes: Retains 5 murine heavy chain framework residues; 100% human light chain framework; also called Clone ID #136; Humanized clone 136
Take B1: the “EC50 (read off the curve)” value was about 0.03 µg/mL.
